Test results as given in US10704064B2, “Recombinant yeast producing 3-hydroxypropionic acid and method for producing 3-hydroxypropionic acid using the same” (SK Innovation Co., Ltd., priority 2014, dated 2020).

Key:
[1] = system: MCR; assay: archaeal MCR activity assay in E. coli lysates (microtitre plate); type: biochemical; details: E. coli cell lysate, NADPH or NADH
Procedure: (§1) pBAT T7 promoter based expression constructs were made for four different archaeal MCRs, Metallosphaera sedula (MCRms), Sulfolobus tokodai (MCRst), Candidatus caldiarchaeum (MCRcc), and Sulfolobales archaeon (MCRsa1).
Their activity was analyzed using the following assay conditions: 0.4 mM NAD(P)H; 0.15 mM Malonyl-CoA; Tris-HCl pH 7; 2 mM MgCl2. Assays on 20 times diluted lysates were performed in microtitre plate (MTP) format at RT. The oxidation of NADPHT or NADHT at A^365 in time was followed. […] However, the MCR activities were smaller than that measured for the tagged MCRca.

[2] = system: MCR; assay: MCR enzyme assay from yeast cell lysates; type: biochemical; details: NADPH as a cofactor
Procedure: The MCR enzyme activity was measured according to the method described by Chen et al. (2014, Metab. Eng. 22:104-109) with slight modifications. The method is based on monitoring the oxidation of NAD(P)H at 340 nm.
Cells were collected and washed with cold wash buffer containing 20 mM Tris-HCl (pH 7.5), 20 mM NaN3 and then resuspended in 1 mL of breaking buffer containing 50 mM HEPES (pH 7.5), 150 mM KCl, 1 mM DTT, 1 mM EDTA, 0.5% Triton X-100 and 1×EDTA free protease inhibitor cocktail (Roche). The cells were lysed with glass beads in a Precellys 24 homogenizer at 5500 rpm for 3×40 seconds and kept on ice between rounds. Lysates were centrifuged at 16 000 g for 20 min at 4° C. and supernatants were collected. The total protein concentration was determined using the Bradford method.
The MCR assay mixture contained 50 mM Tris-HCl buffer (pH 8.0), 5 mM MgCl2 and 0.3 mM NADPH or NADH. After adding 20 μL of cell lysate into a total reaction volume of 200 μL, the reaction was pre-incubated for five minutes at 30° C. after which the reaction was started by addition of 0.15 mM malonyl-CoA. The assay was monitored at 340 nm with a Thermo Konelab 20XT analyser.
The eight full-length Chloroflexus MCR homologues were truncated into their two functional domains and the MCR-specific domains were assayed for enzyme activity in yeast along with the six archaeal MCRs. […]

[3] = SDS-PAGE expression levels of MCR constructs in E. coli lysate
From the text: as §1

B1: MCRsa1: archaeal malonyl-CoA reductase of Sulfolobales archaeon Acd1, WP_020198954.1 (protein)
chain: MRRTLKAAILGATGLVGIEYVRMLSQHPYIKPAYLAGKGSVGKAYSEVVRWQTVGQVPKEVADMPVLPTDVNEIKKAGVDIVFSPLPQGAAGPVEEEFAKAGFPVISNSPDHRFDPDVPLMIPEVNGHTASLIDEQKKRRDWSGFIVTTPLCTAQGIAIPLAPIYRDFRVDSVFITTMQSLSGEGYPGVASLDVVDNIKVLGDAYDAKTVKEVTRILSEVKRNVPGTMDELTLSATTHRIATIHGHYEVMYVTFKEDVKVEKVKETLANFKGEPQDMKLPTAPSRPILITELDNRPQPYFDRWAGDVPGMSVVVGRLKQVNNRTVRLVSLIHNTVRGAAGGGILVAEYLIEKGYIPK
modifications: Sulfolobales archaeon
MCR activity [1]: showed the highest MCR activity
MCR enzyme activity compared to the wild-type strain [2]: higher than the wild-type strain
expression level [3]: highest expression levels
